Key:
Test in all cases: fluorescence anisotropy
RecE564 R768A = biological target: T1, RecE564 R768A (Escherichia coli K12, UniProt P15032 564-866, R768A)
T1 sequence: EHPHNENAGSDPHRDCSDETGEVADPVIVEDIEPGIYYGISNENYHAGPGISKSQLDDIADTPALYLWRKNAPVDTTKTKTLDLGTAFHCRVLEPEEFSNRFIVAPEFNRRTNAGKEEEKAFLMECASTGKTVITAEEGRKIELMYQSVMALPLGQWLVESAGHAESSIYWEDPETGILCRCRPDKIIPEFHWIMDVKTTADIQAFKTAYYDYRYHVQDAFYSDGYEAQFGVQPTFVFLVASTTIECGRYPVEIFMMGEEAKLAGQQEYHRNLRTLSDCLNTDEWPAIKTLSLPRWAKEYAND

RecE564 K643A = biological target: T2, RecE564 K643A (Escherichia coli K12, UniProt P15032 564-866, K643A)
T2 sequence: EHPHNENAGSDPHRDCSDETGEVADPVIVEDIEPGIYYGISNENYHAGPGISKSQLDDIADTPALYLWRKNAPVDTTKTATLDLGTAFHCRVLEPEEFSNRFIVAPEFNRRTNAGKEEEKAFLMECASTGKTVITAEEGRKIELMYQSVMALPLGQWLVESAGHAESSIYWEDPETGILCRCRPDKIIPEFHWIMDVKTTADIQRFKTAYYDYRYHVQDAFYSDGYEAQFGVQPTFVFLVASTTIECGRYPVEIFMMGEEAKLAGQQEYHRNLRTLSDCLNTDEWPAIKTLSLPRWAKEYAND

RecE564 E729A = biological target: T3, RecE564 E729A (Escherichia coli K12, UniProt P15032 564-866, E729A)
T3 sequence: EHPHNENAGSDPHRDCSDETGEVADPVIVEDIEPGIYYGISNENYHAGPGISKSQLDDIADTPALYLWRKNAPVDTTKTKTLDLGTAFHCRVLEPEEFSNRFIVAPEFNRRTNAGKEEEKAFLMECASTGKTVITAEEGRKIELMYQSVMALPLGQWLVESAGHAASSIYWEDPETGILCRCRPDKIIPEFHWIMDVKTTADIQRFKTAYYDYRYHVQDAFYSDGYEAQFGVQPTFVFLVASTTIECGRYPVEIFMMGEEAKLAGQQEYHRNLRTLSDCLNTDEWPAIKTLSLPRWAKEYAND

RecE564 W859A = biological target: T4, RecE564 W859A (Escherichia coli K12, UniProt P15032 564-866, W859A)
T4 sequence: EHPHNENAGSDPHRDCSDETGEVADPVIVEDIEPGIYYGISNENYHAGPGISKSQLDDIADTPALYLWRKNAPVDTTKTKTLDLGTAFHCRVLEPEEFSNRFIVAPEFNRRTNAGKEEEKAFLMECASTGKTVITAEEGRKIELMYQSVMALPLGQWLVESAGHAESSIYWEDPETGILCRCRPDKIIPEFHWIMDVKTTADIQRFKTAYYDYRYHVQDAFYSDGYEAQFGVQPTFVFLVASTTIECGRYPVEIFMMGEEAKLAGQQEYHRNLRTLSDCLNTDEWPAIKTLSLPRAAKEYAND

RecE564 R746A = biological target: T5, RecE564 R746A (Escherichia coli K12, UniProt P15032 564-866, R746A)
T5 sequence: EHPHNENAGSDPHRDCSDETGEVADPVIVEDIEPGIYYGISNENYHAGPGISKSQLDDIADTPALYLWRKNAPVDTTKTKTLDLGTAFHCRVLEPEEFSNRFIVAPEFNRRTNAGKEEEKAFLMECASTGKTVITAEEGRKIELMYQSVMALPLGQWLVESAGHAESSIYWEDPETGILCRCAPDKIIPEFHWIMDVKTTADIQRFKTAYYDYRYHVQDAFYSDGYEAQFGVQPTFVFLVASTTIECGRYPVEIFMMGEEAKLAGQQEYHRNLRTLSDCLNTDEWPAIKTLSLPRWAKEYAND

RecE564 K761A = biological target: T6, RecE564 K761A (Escherichia coli K12, UniProt P15032 564-866, K761A)
T6 sequence: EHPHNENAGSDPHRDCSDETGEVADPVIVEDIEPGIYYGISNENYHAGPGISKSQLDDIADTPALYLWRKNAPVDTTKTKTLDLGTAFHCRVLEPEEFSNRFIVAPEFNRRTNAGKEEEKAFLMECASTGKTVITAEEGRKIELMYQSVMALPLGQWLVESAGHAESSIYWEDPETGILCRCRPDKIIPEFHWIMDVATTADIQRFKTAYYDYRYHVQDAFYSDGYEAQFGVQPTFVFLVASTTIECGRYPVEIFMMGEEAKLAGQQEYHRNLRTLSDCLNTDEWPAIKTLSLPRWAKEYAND

B1: F25 (dsDNA)
DNA 1: TAGAGCTTAATTGCTGAATCTGGTG
DNA 2: CACCAGATTCAGCAATTAAGCTCTA
- Kd (RecE564 R768A): 310 ± 30 nM
- Kd (RecE564 K643A): 210 ± 6 nM
- Kd (RecE564 E729A): 57 ± 3 nM
- Kd (RecE564 W859A): 350 ± 20 nM
- Kd (RecE564 R746A): 90 ± 10 nM
- Kd (RecE564 K761A): 130 ± 10 nM
